Measured values: the nanobody polyreactivity screen of Harvey et al. (2022)

Assay: yeast display, Sf9 membrane polyspecificity reagent, FACS + sequencing; frameworks hold sequencing errors
How it was run: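 Galactose induction of a Saccharomyces cerevisiae BJ5465 synthetic nanobody display library ran 36–48 hours. The cells were then stained for 1 hour at 4 °C with 10% biotinylated, detergent-solubilized Sf9 membrane reagent, pulled down on streptavidin microbeads and FACS-sorted into low and high (top ~1%) gates on expression and reagent-binding fluorescence. Labels for polyreactivity follow the gate of origin.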

Sequence	polyreactivity (PSR sort gate)
QVQLVESGGGLVQAGGSLRLSCAASGSIFDGNAMGWYREAPGKERELVAAISRRAGSTYYADSVKGRFTISRDNAKNTVYLQMNSLNPEDTAVYYCAASLYVPRFSRLGYDYWGQGTHVTVSS	high polyreactivity
QVQLVESGGGLVQAGGSLRLSCAASGFTFLKNAMGWYRQAPGKERELVAAITSSGGRTYYADSVKGRFTISRDNAKNTVYLQMNSLKPEDTAVYFCIKGPLPGYDYWGQGTQVTVSS	high polyreactivity
QVQLVESGGGLVQARGSLRLSCAASGRIFRKYDMGWYRQAPGKERELVAAISGTGITYYADSVKGRFTISRDNAKNTVYLQMNSMKPEDTAVYYCARGSKPRAWSWAYPSDTSIYDYWGQGTQVTVSS	low polyreactivity
QVQLEESGGGLVQAGGSLRLSCAASGRIFDDNAMGWYRQAPGKERELVAAISSGDSTKYADSVKGRFTISRDNAKNTVYLQMNSLKPEDTAVYYCAAERNHGLVGSESVGRNDYWGQGTQVTVSS	low polyreactivity
QDQLEESGGGLVQEGGSLRLSCAASGFIFPRYAMGWYRQAPGKERELVAAISRSGGITRYADSVKGRFSISRDNAKNTVYLQMISLKPEDTAVYYCAAARSYWAKYYYWGQGTQVTVSS	high polyreactivity
QVQLVESGGGLVQAGGSLRLSCAASGRTFPPNSMAWYRQAPGKERELVAGITRGGNTYYADSVKGRFTISRDNAKNTVYLQMNSLKPEDTAVYYCAAERRYYSWYWYRVNYCGQGTQVTVSS	high polyreactivity
QVQLVESGGGLVQAGGSLRLSCAASGRIFQYYTMGWSRQAPGKERELVAAITRSGGSTYYADSVKGRFTISRDNAKNTVYLQMNSLKPEDTAVYYFNADTRVKLPWYYTFDYLGQGTQVTVSS	low polyreactivity
QVQLVESGGGLVQAGGSLRLSCAASGSIFYPYAMGWYRQAPGKERELVAAISYNGGSTYYADSVKGRFTISRDNAKNTVYLQMNSLKPEETAVYYCAARPYHGKLDYWGQGTQVTVSS	low polyreactivity
QVQLVESGGGLVQAGGSLRLTCAASGRTFAYNAMGWYRQAPGKERELVAAITSSGTSTYYADSVKGRFTISRDNAKNTVYLQINCLKPEDTAVYYCAGRQSQKYGLFYYWGQGTQVTVSS	high polyreactivity
QVQLVESGGGLVQAGGSLRLSCAASGFAVSYYAMAWYRQAPGKEREFVASSDWSGGSTYYADSVKGRFTISRDNAKNTVYLQMNSLKPEYTAVYYCAAELVYFPGYDYWGQGTQVTVSS	low polyreactivity
QVQLEESVGGLVQAGGSLRIICAASGSIFSVNSIGWSRQAPGKERELVAAITRDSGSTNYADSVKGRFTISRDNAKNTVYLQMNSLKPEDTAVYYCAADFYYNVSTTIVNFSYDYWGHGTQVTVSS	high polyreactivity
QVQLVESGGGLVQAGGSLRLTCAASGSILIYNAMGWYRQAPGKQRELVADITNGGSTNYADSVKGRFTISRDNAKNTVYLQMHSLKPDDTAVYYCAKDAYYWWGPDYDYWGQGTQVTVSS	low polyreactivity
QVQLVESGGGLVQAGGSLRLSCAASGSIFSWYAMGWYRQAPGKERELVAAISSRGGSTYYADSVKGRFTISRDNAKNTVYLQMNSLKPEDTAVYYCNTTYGYSTYWASGKYDYWGQGTQVTVSS	low polyreactivity
QVQLVESGGGLVQAGGSLRLSCAASGNIFSTYAIGWTRQAPGKERELVASISENGGSTYYADSVKGRFTISRDNAKNTVYLQMNSLKPDDTAVYYCAKGQLYSLFFQHDAPYRYGYWGQGTQVTVSS	low polyreactivity
QVQLVESGGGLVQAGGSLRLSCAASGLFARNAMGWYRQAPGKERELVAAINRSGGSTYYADSVKGRFTISRDNAKNTVYLQMNSLKPEDTAVYYCNKAFTHTKYLSPIAYEYGYWGQGTQVTVSS	low polyreactivity
QVQLVESGGGLVQAGGSLRLSCAASGSIFVGYAMGWYRQAPGKERELVAAISKSGGSTYYADSVKGRFTISRDNAKNTDYLQMNSLKPEDTAVYYCATRTHRRGNYLSITHEYWGQGTQVTVSS	high polyreactivity

Sequence	polyreactivity (PSR sort gate)
QVQLVESGRGLVQAGGSLRLSCAASGGSIPYYAMGWYRQAPGKERELVAAINYSGGSTYYADSVKGRFTISRDNAKNSVYLQMNSLKPEDTAVDYCAARHRYHRGYGYWGQGTQVTLSS	high polyreactivity
QVQLVESGGGLVQAGGSLRLSCAASGIIFDYNAMGWYRQAPGKERELVAAISGRSGRTYYADSVKGRFTISRDNAKNTVYLQMNSLKPEDTAVYYCAARWYAGGNYWGQGTQVTVSS	high polyreactivity
QVQLVESGGVLVQAGGSLRLSCAASGRTFHDYAMGWYRQAPGKERELVASISSGGSTYYADSVKGRFTISRDNAKNTDYLQMNSLKPEDTAVYYCAAYYYYTLYYRYDYWGQGTQVNVSS	low polyreactivity
QGQLVESGGGLVQAGGSLRLSCAASGFTFVYNAMGWYRQAPGKERELVAAITSGGNTYYADSVKGRFTISRDNAKNTVYLQMNSLKPEDTAVYYCAALSYYRFSQEDDYWGQGTQVTVSS	high polyreactivity
QVQLVESCGGLVQAGGSLRLSCAASGITFYGYAMGWYIQAPGKERELVARITISGRTNYADYVKGRFTISRDNAKNTVYLQMNSLKPEDTAVYYCATLVHWSYPYYYWGQGTQVTVSS	high polyreactivity
QVQLEESGGGLVQAGGSLRLSCAASGSIFSPNAMGWYRQAPGKERELVAAISSNGVSTYYADSVKGRFTISRDNAKNTVYLQMNSLKPEDTAVYYCAAVSIGPGEYDYWGQGTQVTVSS	low polyreactivity
QVQLVESRGGLVQAGGSLRLSCAASGRIFYVNAMGGYRQAPGKERELVAAIDVSGGRTYYADSVKGRFTISRDNAKNTVYLQMNSLKPEDTAVYYCAALKYRWTPYYPYDYWGQGTQVTVSS	low polyreactivity
QVQLVESEGGLVQAGGSLRLTCAASGFIYKGYAMGSYRQAPGKETELVAAISSSGTSTYYADSVKGRFTISRDNAKNTVYLQMNSLKPEDTAVYYCARVSKRTWSGYYYWGQGTQVTVSS	high polyreactivity
QVQLVESGGGLVQAGGSLRLSCAASGSIFDQYTMGWSRQAPGKERELVAAIRFSGGSTSYADSVKGRFTISRDNAKNTVYLQMNSLIPEDTAVYYCNVDAITWWDWEDFDYWGQGTQVTVSS	low polyreactivity
QVQLQESGSGLVQAGGSLRLSSAASGNISHYNDMGWYRQAPGKEREPVATINSGSITYYADSVKGRFTISRDNAKNTVYLQMNSLKPEDTAVYYCAVTQHGYFYLDYWGQGTQVTVSS	high polyreactivity
QVQLVESGGGLVQAGGILRVSCAASGSTFRRYAMGWSRQAPGKERELVAAIRQRGTSTYYADSVKGRFTISRDNAKNTVYLQMNSLKPEDTAVYYCAAGPSLWLFNSWGQGTQVTVSS	high polyreactivity
QVQLVESGGGLVQAGGRLRLSCAASGSIFFDYAMGWYRQAPGKERELVAAINSGGTTNYADSVKGRFTISRDNAKNTVYLQMKQPETGRYRGLLLQRLPGYIRWYRWYDYWGQGTQVTVSS	low polyreactivity
QVQLVESGGGLVQAGGSLRLSCAASGRIFQAYAMGWYRQAPGKERELVAAISRSGGGTYYADSVKGRFTISRDNAKNTVYLQMNCLKPEDTAVYYCNARGSTARGRGYWGQGTQVTVSS	high polyreactivity
QVQLVESGGGLVQAGGSLRLSCAASGNILRSYAMGWYRQAPGKERELVAAISADGSGTYYADSVKGRFTISRDNAKNTVYLQMNSLKPEDTAVYYCAAERYFWWYYDPENYWGQGTQVTVSS	high polyreactivity
QVQLVESGGGIVQAGGSLRLSCAASGSIFGINAMGWNRQAPGKERELVAAITSRGGRTYYADSVKGRFTISRDNAKNTVYLQMNSLKPEDTAVYYCAAATPYLIRYYYWGQGTQVTVSS	high polyreactivity
